This note sets out measurements from patent US8709741B2, “Methods of diagnosing a plasmodium infection” (priority 2009, dated 2014).

Data set [1] has as its system P. falciparum-infected erythrocytes. Kind of data set: Hydrolysis of serum-derived and Albumax II-derived parasite cultures (NEFA). Particulars: 50 nM, 6 h, schizont-enriched culture. The data set is classed as cell-based, human. How it is done: Parasites were grown in medium containing either 8% human serum (iRBC/S) or 0.5% Albumax II® (iRBC/A). Cultures were semi-synchronized so that they contain mainly mature parasites at the time of the experiment. Both cultures (2.5-3% parasitaemia) were then washed and cells were re-suspended at 50% haematocrit in RPMI 0.05% BSA with or without 50 nM of recombinant GX sPLA2, and incubated for 6 h in culture conditions. Non-infected RBCs (red blood cells) and human serum were processed similarly. Cell supernatants and serum were frozen at −20° C.; erythrocyte ghosts were prepared and frozen. NEFAs in each sample were measured in duplicate upon thawing, using the NEFA-C kit (WAKO). NEFA amount in healthy RBCs (RBC) and in infected cultures (iRBC) is expressed as the sum of NEFAs from paired ghosts and supernatants. Values are the mean of the duplicate measurement, subtracted for values in the absence of enzyme. The experiment was repeated twice and gave similar qualitative results. Results from one experiment are shown;
Parasites were grown for several cycles in culture medium supplemented either with 8% human serum or with 0.5% Albumax II®. Cultures were semi-synchronized by Sorbitol treatment 2-3 days prior to the experiment. […] NEFAs were measured using the NEFA-C kit (WAKO). […]

Data set [2] is described as follows: Specific activities of sPLA2s on human plasma (NEFA release, NEFA-C kit). In kind it is biochemical. How it is done: Kinetic analysis of human plasma hydrolysis by sPLA2s was performed by mixing on ice 50 μL of crude plasma with recombinant sPLA2s at various final concentrations (respectively 2×, 5× and 10× the IC50 value). At time zero, the mixture was transferred to 37° C. Samples (7 μL) were taken after 5, 15, 30 and 60 minutes of incubation and quickly frozen at −20° C. An aliquot of plasma without enzyme was similarly processed. Concentration of non-esterified fatty acids (NEFAs) in each sample was measured by a discontinuous enzymatic method using the NEFA-C test kit from WAKO, following manufacturer's instructions. The amount of NEFAs in each enzyme-containing plasma sample was subtracted for NEFAs in enzyme-free plasma sample. Specific activity for each of the sPLA2s was determined from the linear part of the curve [NEFA]=f(t). Experiment was repeated three times with plasmas from different donors and different batches of sPLA2s.
Specific activities of sPLA2s on human plasma. Hydrolysis of plasma phospholipids by human and venom sPLA2s was assayed using different incubation times and enzymes concentrations. Hydrolysis was assessed by measuring the amount of NEFAs in samples using the colorimetric assay developed by WAKO (NEFA-C kit). Enzymatic production of NEFAs was corrected for endogenous production of NEFAs measured in the absence of sPLA2. Specific activity for each of the sPLA2s was determined from the linear part of the kinetic curve. Values are the mean of three independent experiments. SD: standard deviation. Anti-P. falciparum activities (IC50) of the respective sPLA2s are given for comparison.

The test system of another data set is P. falciparum. Kind of data set: Anti-Plasmodium activity assay in Albumax II (serum substitute). In kind it is cell-based. The settings on record: Albumax II. The method, then: The chloroquine-resistant P. falciparum FcB1/Colombian strain was used. Under the following culture conditions, the in vitro life cycle of the FcB1 strain was 48 hours. Cultures were grown in complete medium consisting of RPMI 1640 (Life Technologies, Inc.) supplemented with 11 mM glucose, 27.5 mM NaHCO3, 100 UI/mL penicillin, 100 μg/mL streptomycin, adjusted to pH 7.4 before addition of heat-inactivated human serum (A+ blood group, 8% final) or Albumax II® (0.5% final), according to the procedure of Trager and Jensen (1976). Parasites were routinely grown at 37° C. in human A+ RBCs (Red blood cells) at a 2% haematocrit and 2-6% parasitemia, in a 3% CO2, 6% O2 and 91% N2 atmosphere. Semi-synchronized cultures were established by Sorbitol (Lambros) treatment. […] Parasitaemia and stage distribution were determined by optical examination of Diff-Quick stained culture smears. […]
Dried preparations of the purified recombinant human sPLA2s were re-suspended at high concentration (usually 50 μM) in RPMI 0.05% BSA, and then tested individually for their capacity to inhibit the in vitro intra-erythrocytic development of P. falciparum. […] Radioactivity was measured with a 1450 Microbeta counter (Wallac, Perkin Elmer). Percentage of growth inhibition was calculated from the parasite-associated radioactivity compared with control without sPLA2. Values for the IC50 were determined from dose-response curves. […]

A short description of data set [3]: 48 h-hydrolysis of plasma by sPLA2s at IC50 concentrations (NEFA). In kind it is biochemical, human. The settings on record: GX 3 nM, GIIF full length or truncated 15 nM, bee venom 15 pM; 37° C. How it is done: Crude human plasma was incubated with 3 nM of recombinant human GX sPLA2 (⋄), 15 nM of the full length (▪) or truncated (□) recombinant human GIIF sPLA2, and 15 pM of the bee venom sPLA2 (♦), for 48 h at 37° C. Aliquots were taken at times 0 h, 6 h, 22 h, 30 h and 48 h of incubation. NEFAs in each aliquot were measured using the NEFA-C kit (WAKO);
Crude human plasma was incubated with 3 nM of recombinant human GX sPLA2, 15 nM of the full length or the truncated form (IIFΔC) of recombinant human GIIF sPLA2, and 15 pM of the bee venom sPLA2, for 48 h at 37° C. Aliquots (7 μL) were taken at times 0 h, 6 h, 22 h, 30 h and 48 h of incubation. NEFAs were measured in each aliquot by using the NEFA-C kit (WAKO). Experiment was repeated twice with different plasmas.

B1: X: recombinant human group X secreted phospholipase A2 (protein, UniProt O15496 43-165, looked up)
Group 10 secretory …: GILELAGTVGCVGPRTPIAYMKYGCFCGLGGHGQPRDAIDWCCHGHDCCYTRAEEAGCSPKTERYSWQCVNQSVLCGPAENKCQELLCKCDQEIANCLAQTEYNLKYLFYPQFLCEPDSPKCD
For B1, the “NEFA release from Albumax II-derived versus serum-derived parasite culture” value in data set [1] is recorded as “released at the same rate”. In data set [2] (ratio of specific activities), the “activity on plasma relative to GIIF sPLA2” value turned out to be 9 times and the “activity on plasma relative to GV sPLA2” value worked out at 30 times. In addition, in data set [2] (whole human plasma, 37° C., linear part of kinetic curve, mean of three experiments), the “Specific activity ± SD (μmol NEFA/min × mg enzyme)” value amounted to 8.23 ± 0.92 μmol NEFA/min × mg enzyme. In addition, in the data set on P. falciparum, the “inhibition of Plasmodium growth in Albumax II” value is “does not efficiently inhibit Plasmodium growth”. Also, in data set [3], the “hydrolysis of plasma over 48 h” value is on record as “the most active”.
